The source of these data is article PMC2887722 (Molecular cell, 2010).

Changes are numbered by the printed parent chain.

By Kd is commonly meant the equilibrium constant for the complex coming apart. A high value points to a looser complex.

Sequences and labels used below:
B1: hRpn13 (1-150) (domain or fragment, human, UniProt Q16186 1-150, looked up)
chain: MTTSGALFPSLVPGSRGASNKYLVEFRAGKMSLKGTTVTPDKRKGLVYIQQTDDSLIHFCWKDRTSGNVEDDLIIFPDDCEFKRVPQCPSGRVYVLKFKAGSKRLFFWMQEPKTDQDEEHCRKVNEYLNNPPMPGALGASGSSGHELSAL
B2: full length human Rpn13 (hRpn13) (natural protein, UniProt Q16186 1-407, looked up)
chain: MTTSGALFPSLVPGSRGASNKYLVEFRAGKMSLKGTTVTPDKRKGLVYIQQTDDSLIHFCWKDRTSGNVEDDLIIFPDDCEFKRVPQCPSGRVYVLKFKAGSKRLFFWMQEPKTDQDEEHCRKVNEYLNNPPMPGALGASGSSGHELSALGGEGGLQSLLGNMSHSQLMQLIGPAGLGGLGGLGALTGPGLASLLGSSGPPGSSSSSSSRSQSAAVTPSSTTSSTRATPAPSAPAAASATSPSPAPSSGNGASTAASPTQPIQLSDLQSILATMNVPAGPAGGQQVDLASVLTPEIMAPILANADVQERLLPYLPSGESLPQTADEIQNTLTSPQFQQALGMFSAALASGQLGPLMCQFGLPAEAVEAANKGDVEAFAKAMQNNAKPEQKEGDTKDKKDEEEDMSLD
B3: GST-tagged hRpn2 (797-953) (domain or fragment, human, UniProt Q99460 797-953, looked up)
chain: MPKVQYKSNCKPSTFAYPAPLEVPKEKEKEKVSTAVLSITAKAKKKEKEKEKKEEEKMEVDEAEKKEEKEKKKEPEPNFQLLDNPARVMPAQLKVLTMPETCRYQPFKPLSIGGIIILKDTSEDIEELVEPVAAHGPKIEEEEQEPEPPEPFEYIDD
B4: hRpn13 (253-407) (domain or fragment, human, UniProt Q16186 253-407, looked up)
chain: STAASPTQPIQLSDLQSILATMNVPAGPAGGQQVDLASVLTPEIMAPILANADVQERLLPYLPSGESLPQTADEIQNTLTSPQFQQALGMFSAALASGQLGPLMCQFGLPAEAVEAANKGDVEAFAKAMQNNAKPEQKEGDTKDKKDEEEDMSLD
B5: GST-tagged hRpn13 (253-407) wild-type (domain or fragment, human, UniProt Q16186 253-407, looked up)
chain: B4 chain
B6: GST-tagged hRpn13 (253-407) with alanine substitutions of Val286, Asp287, Glu295 and Ile296 (domain or fragment, human, UniProt Q16186 253-407, looked up)
chain: B4 chain with V34A, D35A, E43A, I44A

For one experiment, the target named is T1, hRpn2 (797-953) (human, UniProt Q99460 797-953).
T1 sequence (looked up): B3 chain
Kind of experiment: NMR titration.

A further experiment has as its target ubiquitin (UniProt P0CG48 1-76). Kind of experiment: other fluorescence titration.
Experiment [1] has as its target B2. Kind of experiment: pull-down.
Experiment [2] concerns the target T2, His-tagged Uch37 (UniProt Q9Y5K5 1-329).
T2 sequence (looked up): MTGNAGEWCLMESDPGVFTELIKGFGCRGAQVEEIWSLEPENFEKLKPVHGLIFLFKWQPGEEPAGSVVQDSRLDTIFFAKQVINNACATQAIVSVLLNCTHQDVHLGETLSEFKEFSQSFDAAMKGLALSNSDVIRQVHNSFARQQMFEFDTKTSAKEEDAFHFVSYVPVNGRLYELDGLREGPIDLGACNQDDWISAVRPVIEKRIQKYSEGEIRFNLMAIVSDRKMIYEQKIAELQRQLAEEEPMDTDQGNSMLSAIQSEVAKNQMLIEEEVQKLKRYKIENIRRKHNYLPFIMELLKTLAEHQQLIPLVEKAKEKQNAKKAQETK
Kind of experiment: NMR intermolecular NOEs.

The target in experiment [3] is T2, His-tagged Uch37. The experiment can be described thus: pull-down.

B1: the binding result in the experiment with hRpn2 (797-953) is “binds”.

In the case of B2, the Kd in the experiment with ubiquitin was determined as 8 ± 0.5 µM.

With B3, the binding result in experiment [1] was “binds”.

As for B4, the binding result in the experiment with His-tagged Uch37 [2] is “binds”.

As for B5, the binding result with His-tagged Uch37 [3] is listed as “binds”.

Turning to B6, the binding result with His-tagged Uch37 [3] is “binds”.
